In test [1] the target is recombinant human APC/C (without CDH1) (human, UniProt Q9H1A4;Q9UJX6;P30260;Q9UJX5;Q9UJX4;Q13042;Q9UJX3;Q9UJX2;Q9UM13;Q9NYG5;Q9BS18;P60 …). As to the kind of experiment: enzyme inhibition.
Test [2] deals with recombinant human APC/C^CDH1 (Anaphase Promoting Complex/Cyclosome with CDH1) (human, UniProt Q9H1A4;Q9UJX6;P30260;Q9UJX5;Q9UJX4;Q13042;Q9UJX3;Q9UJX2;Q9UM13;Q9NYG5;Q9BS18;P60 …). As to the kind of experiment: enzyme inhibition.

Changes are numbered by the printed parent chain.

The term Ki denotes the equilibrium dissociation constant of an inhibitor or competing ligand from its target.

B1: EMI1^ZT (ZBR and Tail; residues 363-447) (domain or fragment)
chain: SEVAKTLKKNESLKACIRCNSPAKYDCYLQRATCKREGCGFDYCTKCLCNYHTTKDCSDGKLLKASCKIGPLPGTKKSKKNLRRL
Turning to B1, in test [1], the Ki was determined as 2000 ± 400 nM.

B2: EMI1^DLZT (D-box, Linker, ZBR, Tail; C-terminal APC/C inhibitory domain, residues 305-447) (domain or fragment)
chain: NNNKFSPHASTREYVMFRTPLASVQKSAAQTSLKKDAQTKLSNQGDQKGSTYSRHNEFSEVAKTLKKNESLKACIRCNSPAKYDCYLQRATCKREGCGFDYCTKCLCNYHTTKDCSDGKLLKASCKIGPLPGTKKSKKNLRRL
As for B2, the Ki in test [2] was at most 2.5 nM.

B3: EMI1^D(Mut)LZT (EMI1^DLZT with alanines in place of Arg322 and Leu325 of the D-box RxxL motif) (domain or fragment)
chain: B2 chain with R18A, L21A
As for B3, the Ki in test [1] is 220 ± 37 nM.

Source of the values: article PMC3742808 (Nature structural & molecular biology, 2013).
